Ends that are not written are not given here.
B1: Human amylin (1-37) (peptide)
peptide: KCNTATCATQRLANFLVHSSNNFGAILSSTNVGSNTY-NH2
modifications: ends and bridges not checked
B2: Human calcitonin (1-32) (peptide)
peptide: CGNLSTCMLGTYTQDFNKFHTFPQTAIGVGAP-NH2
modifications: ends and bridges not checked
B3: antibody G1 Fab fragment (Fab, V domains shown)
VH: EVQLVESGGGLVQPGGSLRLSCAASGFTFSNYWISWVRQAPGKGLEWVAEIRSESDASATHYAEAVKGRFTISRDNAKNSLYLQMNSLRAEDTAVYYCLAYFDYGLAIQNYWGQGTLVTVSS
VL: EIVLTQSPATLSLSPGERATLSCKASKRVTTYVSWYQQKPGQAPRLLIYGASNRYLGIPARFSGSGSGTDFTLTISSLEPEDFAVYYCSQSYNYPYTFGQGTKLEIK
B4: Human adrenomedullin (1-52) (peptide)
peptide: YRQSMNNFQGLRSFGCRFGTCTVQKLAHQIYQFTDKDKDNVAPRSKISPQGY-NH2
modifications: ends and bridges not checked
B5: human α-CGRP fragment 1-13-COOH (peptide)
peptide: ACDTATCVTHRLA-OH
modifications: ends and bridges not checked
B6: human α-CGRP fragment 1-19-COOH (peptide)
peptide: ACDTATCVTHRLAGLLSRS-OH
modifications: ends and bridges not checked

What was measured:
antibody G1 Fab fragment = biological target: B3; assay: Biacore competition: G1 Fab 50 nM pre-incubated 1 h with 10 uM competing peptide, flowed over N-biotinylated human α-CGRP on SA chip; blocked ligand human α-CGRP
Source text: Y axis represents percentage of binding blocked by the presence of the competing peptide compared with the binding in the absence of the competing peptide.
All these peptides are amidated at the C-terminus.

[1] = biological target: T1, human α-CGRP fragment 8-37 (human, C-terminal amide); assay: Biacore competition, 50 nM G1 Fab + 10 uM peptide over human α-CGRP on chip
T1 peptide: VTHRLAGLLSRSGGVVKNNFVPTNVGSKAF
Source text: (§1) Y axis represents percentage of binding blocked by the presence of the competing peptide compared with the binding in the absence of the competing peptide. […]

Human calcitonin (1-32) = biological target: B2; assay: as above
Source text: as §1

[2] = biological target: human α-CGRP fragment 19-36-COOH (human, Table 4: not C-terminally amidated (19-36-COOH); paragraph 408 says amidated at the C-terminus); assay: as above
Source text: as §1

rat β-CGRP (1-37) = biological target: T2, rat β-CGRP (1-37) (rat, not fully specified; C-terminal amide; N-terminal biotin when captured on the chip); assay: as above
T2 construct: also called rat β (1-37)
T2 peptide: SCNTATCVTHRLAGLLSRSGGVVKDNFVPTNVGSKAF
Source text: as §1

[3] = biological target: B4; assay: as above
Source text: as §1

Human amylin (1-37) = biological target: B1; assay: as above
Source text: as §1

[4] = biological target: T3, human α-CGRP K35E (19-37) (human, not fully specified); assay: as above
T3 construct: the entry already carries the mutation
T3 peptide: SGGVVKNNFVPTNVGSEAF-NH2
Source text: as §1

[5] = biological target: T4, human α-CGRP fragment 26-37 (human); assay: as above
T4 peptide: NFVPTNVGSKAF-NH2
Source text: as §1

[6] = biological target: B6; assay: as above
Source text: as §1

[7] = biological target: T5, human α-CGRP K35M (19-37) (human, not fully specified); assay: as above
T5 construct: the entry already carries the mutation
T5 peptide: SGGVVKNNFVPTNVGSMAF-NH2
Source text: as §1

[8] = biological target: B5; assay: as above
Source text: as §1

[9] = biological target: T6, human α-CGRP K35A (19-37) (human, not fully specified); assay: as above
T6 construct: the entry already carries the mutation
T6 peptide: SGGVVKNNFVPTNVGSAAF-NH2
Source text: as §1

rat α-CGRP (1-37) = biological target: T7, rat α-CGRP (1-37) (rat, not fully specified; C-terminal amide; N-terminal biotin when captured on the chip); assay: as above
T7 construct: also called rat α (1-37); α-rat
T7 peptide: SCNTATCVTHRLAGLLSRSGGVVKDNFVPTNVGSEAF
Source text: as §1

human α-CGRP 1-37 (WT) = biological target: T8, human α-CGRP 1-37 (WT) (human, not fully specified; C-terminal amide; N-terminal biotin when captured on the chip; 125I label in the radioligand assay); assay: as above
T8 construct: also called α-human
T8 peptide: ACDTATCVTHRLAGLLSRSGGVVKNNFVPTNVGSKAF
Source text: as §1

human β-CGRP (1-37) = biological target: T9, human β-CGRP (1-37) (human, not fully specified; C-terminal amide; N-terminal biotin when captured on the chip); assay: as above
T9 construct: also called human β (1-37); β-CGRP (WT)
T9 peptide: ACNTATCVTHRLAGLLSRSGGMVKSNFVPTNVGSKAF
Source text: as §1

[10] = biological target: T10, human α-CGRP fragment 1-36-COOH (human, free C-terminus (not amidated)); assay: as above
T10 peptide: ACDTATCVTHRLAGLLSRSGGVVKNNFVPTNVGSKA
Source text: as §1

[11] = biological target: T11, human α-CGRP P29A (19-37) (human); assay: as above
T11 construct: the entry already carries the mutation
T11 peptide: SGGVVKNNFVATNVGSKAF-NH2
Source text: as §1

Binder: B1
% Binding blocked (antibody G1 Fab fragment): 0%

Binder: B2
% Binding blocked (antibody G1 Fab fragment): 0%

Binder: B3
percentage of binding blocked [1]: 100% | binding result (Human calcitonin (1-32)): no binding (tested: 10 uM peptide) | binding result [2]: no binding (tested: 10 uM peptide) | percentage of binding blocked (rat β-CGRP (1-37)): 100% | binding result [3]: no binding (tested: 10 uM peptide) | binding result (Human amylin (1-37)): no binding (tested: 10 uM peptide) | percentage of binding blocked [4]: 100% | percentage of binding blocked [5]: 100% | binding result [6]: no binding (tested: 10 uM peptide) | percentage of binding blocked [7]: 100% | binding result [8]: no binding (tested: 10 uM peptide) | percentage of binding blocked [9]: 100% | percentage of binding blocked (rat α-CGRP (1-37)): 100% | percentage of binding blocked (human α-CGRP 1-37 (WT)): 100% | percentage of binding blocked (human β-CGRP (1-37)): 100% | percentage of binding blocked [10]: ~40% | percentage of binding blocked [11]: 100%

Binder: B4
% Binding blocked (antibody G1 Fab fragment): 0%

Binder: B5
% Binding blocked (antibody G1 Fab fragment): 0%

Binder: B6
% Binding blocked (antibody G1 Fab fragment): 0%

Reference: US20170037117A1 (SALK INSTITUTE FOR BIOLOGICAL STUDIES, published 2017)
